Measurements reported in US20120020975A1 (published 2012).

Biological target: T1, mouse PCSK9, mPCSK9-8xHIS (mouse, UniProt Q80W65 35-694, limits assumed)
T1 construct: also called His-tagged mouse PCSK9; biotinylated-mouse PCSK9
Test: KinExA solution equilibrium
Excerpt: Equilibrium dissociation constant (KD) were obtained from nonlinear regression of the two sets of competition curves using a one-site homogeneous binding model. The KinExA® Pro software was employed in the analysis.

B1: 16F12, anti-PCSK9 huIgG4 (antibody, V domains shown)
VH: QVHLVESGGGVVQPGRSLRLSCAASGFTFNSFGMHWVRQAPGKGLEWVALIWSDGSDEYYADSVKGRFTISRDNSKNTLYLQMNSLRAEDTAVYYCARAIAALYYYYGMDVWGQGTTVTVSS
VL: QSVLTQPPSVSAAPGQKVTISCSGSSSNIGNNFVSWYQQLPGTAPKLLIYDYNKRPSGIPDRFSGSKSGTSATLGITGLQTGDEADYYCGTWDSSLSAYVFGTGTRVTVLQ
notes: also called 16F12.1
fold lower affinity than to human and cyno PCSK9: 10 to 250 fold
